In patent publication US20240124586A1 (WUXI BIOLOGICS IRELAND, published 2024):
Numbering of substitutions follows the chain as printed. Names and notes keep the numbering of the source. One block for each binder: values may come before it.

Columns and labels:
[1] = biological target: T1, human CD3 on CD3+ Jurkat cells (human, UniProt P07766 23-207; P09693 23-182; P04234 22-171); assay: affinity by flow cytometry on Jurkat cells (bound/free versus bound)
T1 construct: whole, on cells; also called CD3 positive Jurkat cells
Procedure: (§1) Binding affinity to CD3 and CD19 was determined by flow cytometry using Jurkat and Ramos cells, respectively. The cells were transferred in to 96-well U-bottom plates (BD) at a density of 5×10⁴ cells/well. Antibodies to be tested were 1:2-fold serially diluted in 1% 1×PBS/1% BSA and incubated with cells at 4° C. for 1 hr. Then, the plates were centrifuged at 1500 rpm for 4 mins and the supernatant discarded. […] The cells were washed once and re-suspended in 100 μL 1×PBS/1% BSA. Fluorescence intensity was measured by flow cytometry (BD Canto II) and analyzed by FlowJo. Fluorescence intensity was converted to bound molecules/cell based on the quantitative beads (Quantum™ MESF Kits, Bangs Laboratories). KD was calculated by Graphpad Prism5.
(§2) The bound IgG/free IgG versus bound IgG was plotted in FIGS. 46A and 46B.

FcγRIIa (H167) = biological target: T2, FcγRIIa (H167) (UniProt P12318 36-218, limits assumed); assay: SPR (Biacore), receptor captured on anti-his chip, steady state model
T2 sequence (looked up): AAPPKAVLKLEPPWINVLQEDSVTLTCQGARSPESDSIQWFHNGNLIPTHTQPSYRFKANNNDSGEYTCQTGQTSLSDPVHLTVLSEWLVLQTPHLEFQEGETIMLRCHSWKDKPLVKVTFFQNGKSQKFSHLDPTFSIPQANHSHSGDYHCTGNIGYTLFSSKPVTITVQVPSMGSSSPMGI
Procedure: (§3) Antibody binding affinity to FcγRs was detected using Biacore T200 (or Biacore 8K). Each receptor was captured on an anti-his antibody immobilized CM5 sensor chip (GE). Antibodies at different concentrations were injected over the sensor chip at a flow rate of 30 uL/min for an association phase of 60 s, followed by 60 s dissociation. The chip was then regenerated by 10 mM glycine (pH 1.5) after each binding cycle.
(§4) The sensorgrams of blank surface and buffer channel were subtracted from the test sensorgrams. The experimental data was fitted by 1:1 model using Langmiur analysis (for FcγRI) or steady state model (for other receptors). A molecular weight of 150 KDa was used to calculate the molar concentration of antibodies.

FcγRIIb = biological target: T3, FcγRIIb (UniProt P31994 46-217, limits assumed); assay: as above
T3 sequence (looked up): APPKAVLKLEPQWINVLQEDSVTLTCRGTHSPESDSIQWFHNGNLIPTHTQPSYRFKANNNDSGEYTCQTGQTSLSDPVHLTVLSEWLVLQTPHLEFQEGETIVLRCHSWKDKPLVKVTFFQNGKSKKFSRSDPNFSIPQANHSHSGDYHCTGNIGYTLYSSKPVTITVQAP
Procedure: as §3, §4

FcγRIIIa (V176) = FcγRIIIa (V176) (UniProt P08637 17-208); assay: as above
Procedure: as §3, §4

FcγRIIIa (F176) = FcγRIIIa (F176) (UniProt P08637 17-208); assay: as above
Procedure: as §3, §4

FcγRIIa (R167) = biological target: T4, FcγRIIa (R167) (UniProt P12318 36-218, limits assumed); assay: as above
T4 sequence (looked up): T2 sequence (looked up) with H132R
Procedure: as §3, §4

[2] = biological target: T5, human CD19 on CD19+ B cell lines (Ramos, Raji) (human, UniProt P15391 20-556); assay: flow cytometry on Ramos cells
T5 construct: whole, on cells; also called CD19+ Ramos cells; CD19+ Raji cells
T5 sequence (looked up): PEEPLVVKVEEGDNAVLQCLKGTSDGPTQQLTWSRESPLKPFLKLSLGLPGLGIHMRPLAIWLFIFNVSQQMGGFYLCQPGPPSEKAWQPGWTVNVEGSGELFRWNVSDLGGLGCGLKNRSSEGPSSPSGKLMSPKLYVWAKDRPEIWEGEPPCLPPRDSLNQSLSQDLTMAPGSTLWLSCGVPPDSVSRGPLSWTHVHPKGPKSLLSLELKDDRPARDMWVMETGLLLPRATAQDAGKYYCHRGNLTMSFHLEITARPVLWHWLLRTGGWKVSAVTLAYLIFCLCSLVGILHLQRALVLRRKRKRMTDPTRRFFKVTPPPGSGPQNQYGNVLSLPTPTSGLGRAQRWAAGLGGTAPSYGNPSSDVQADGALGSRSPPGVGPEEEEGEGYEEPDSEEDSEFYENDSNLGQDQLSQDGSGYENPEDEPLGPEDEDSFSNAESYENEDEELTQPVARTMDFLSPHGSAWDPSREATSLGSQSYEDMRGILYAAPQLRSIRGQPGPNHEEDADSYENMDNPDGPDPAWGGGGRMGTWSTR

[3] = biological target: T5, human CD19 on CD19+ B cell lines …; assay: cell-based or functional assay
FcγRI = biological target: T6, FcγRI (UniProt P12314 16-288, limits assumed); assay: SPR (Biacore), receptor captured on anti-his chip, 1:1 model
T6 construct: His-tagged by the capture method
Procedure: as §3, §4

[4] = biological target: T5, human CD19 on CD19+ B cell lines …; assay: affinity by flow cytometry on Ramos cells (bound/free versus bound)
Procedure: as §1, §2

[5] = biological target: T7, human CTLA-4 on engineered 293F cells (W316-293F.hPro1.FL) (human, UniProt P16410 36-223); assay: FACS binding to human CTLA-4 engineered cells
T7 construct: whole, on cells; also called human CTLA-4 engineered cells; CTLA-4+ cells
Procedure: 3.16-fold titrated Abs with 1% BSA DPBS from 200 nM to 0.002 nM were added to the cells. Plates were incubated at 4° C. for 1 hour. After wash, […] 1:150 diluted PE-labeled goat anti-human antibody (Jackson 109-115-098) was added to each well and the plates were incubated at 4° C. for 1 hour. The binding of the antibodies onto the cells was tested by flow cytometry and the mean fluorescence intensity (MFI) was analyzed by FlowJo.

Sequence of FcγRIIIa (F176) (P08637 17-208 limits assumed): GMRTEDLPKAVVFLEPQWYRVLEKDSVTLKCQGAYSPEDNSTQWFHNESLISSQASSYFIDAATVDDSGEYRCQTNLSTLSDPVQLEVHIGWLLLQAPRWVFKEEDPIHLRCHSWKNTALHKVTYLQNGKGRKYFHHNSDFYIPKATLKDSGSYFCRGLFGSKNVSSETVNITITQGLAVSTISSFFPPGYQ
T6 sequence (P12314 16-288 limits assumed): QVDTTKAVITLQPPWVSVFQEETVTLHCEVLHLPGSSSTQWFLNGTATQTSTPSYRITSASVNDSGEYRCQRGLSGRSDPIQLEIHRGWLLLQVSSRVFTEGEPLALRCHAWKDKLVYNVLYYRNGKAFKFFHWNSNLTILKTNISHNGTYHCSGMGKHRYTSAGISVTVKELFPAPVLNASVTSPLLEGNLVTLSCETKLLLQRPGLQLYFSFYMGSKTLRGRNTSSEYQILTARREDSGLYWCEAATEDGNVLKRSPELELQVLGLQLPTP
T7 sequence (P16410 36-223, change not shown): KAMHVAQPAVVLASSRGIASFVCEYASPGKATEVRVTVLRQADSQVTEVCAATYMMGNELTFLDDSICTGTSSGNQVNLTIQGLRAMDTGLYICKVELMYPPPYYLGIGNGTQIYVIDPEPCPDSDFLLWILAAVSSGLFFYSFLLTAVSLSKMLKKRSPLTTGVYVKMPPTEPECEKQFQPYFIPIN
T1 sequence (P07766 23-207, chain 1 of 3): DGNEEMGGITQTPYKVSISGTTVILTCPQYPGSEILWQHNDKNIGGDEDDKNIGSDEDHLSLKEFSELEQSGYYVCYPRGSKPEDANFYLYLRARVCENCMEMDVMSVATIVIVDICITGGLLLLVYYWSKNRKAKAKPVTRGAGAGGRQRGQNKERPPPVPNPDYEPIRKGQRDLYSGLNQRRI
T1 sequence (P09693 23-182, chain 2 of 3): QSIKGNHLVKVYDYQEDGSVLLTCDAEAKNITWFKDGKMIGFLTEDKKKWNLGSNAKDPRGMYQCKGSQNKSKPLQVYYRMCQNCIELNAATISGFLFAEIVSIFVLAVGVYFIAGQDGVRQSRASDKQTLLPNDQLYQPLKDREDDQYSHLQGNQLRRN
T1 sequence (P04234 22-171, chain 3 of 3): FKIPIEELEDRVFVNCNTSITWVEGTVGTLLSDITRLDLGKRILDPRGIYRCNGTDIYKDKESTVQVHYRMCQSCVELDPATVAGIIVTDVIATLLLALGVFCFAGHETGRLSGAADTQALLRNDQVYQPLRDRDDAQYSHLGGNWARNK
Sequence of FcγRIIIa (V176) (P08637 17-208 F176V limits assumed): as the sequence (P08637 17-208 limits assumed) above, with F160V counted along it

- Kd [1]: 9 nM
- Kd (FcγRIIa (H167)): 20500 nM
- Kd (FcγRIIb): 24100 nM
- Kd (FcγRIIIa (V176)): 14000 nM
- Kd (FcγRIIIa (F176)): 29300 nM
- Kd (FcγRIIa (R167)): 15800 nM
- EC50 [2]: 15.6 nM
- EC50 of cell lysis, CD8+ T cells and Raji cells, 4 hours [3]: 15 nM
- Kd (FcγRI): 9.79 nM
- Kd [4]: 23 nM
B1: W3438-T3U4.E17-1.uIgG4.SP, bispecific anti-CD3 x CD19 (bispecific antibody)
heavy 1: QVQLVQSGAEVKKPGSSVKVSCKASGFAFTDYYIHWVRQAPGQGLEWMGWISPGNVNTKYNENFKGRVTITADKSTSTAYMELSSLRSEDTAVYYCARDGYSLYYFDYWGQGTLVTVLEDLKNVFPPEVAVFEPSEAEISHTQKATLVCLATGFYPDHVELSWWVNGKEVHSGVCTDPQPLKEQPALQDSRYALSSRLRVSATFWQNPRNHFRCQVQFYGLSENDEWTQDRAKPVTQIVSAEAWGRYGPPCPPCPAPEFLGGPSVFLFPPKPKDTLMISRTPEVTCVVVDVSQEDPEVQFNWYVDGVEVHNAKTKPREEQFNSTYRVVSVLTVLHQDWLNGKEYKCKVSNKGLPSSIEKTISKAKGQPREPQVYTLPPCQEEMTKNQVSLWCLVKGFYPSDIAVEWESNGQPENNYKTTPPVLDSDGSFFLYSRLTVDKSRWQEGNVFSCSVMHEALHNHYTQKSLSLSLGK
light 1: DIVMTQSPDSLAVSLGERATINCKSSQSLLNSRTRKNYLAWYQQKPGQPPKLLIYWASTRQSGVPDRFSGSGSGTDFTLTISSLQAEDVAVYYCTQSHTLRTFGGGTKVEIKPDIQNPDPAVYQLRDSKSSDKSVCLFTDFDSQTQVSQSKDSDVYITDKCVLDMRSMDFKSNSAVAWSQKSDFACANAFQNSIIPEDTFFPSPESS
heavy 2: QMQLVQSGPEVKKPGTSVKVSCKASGYAFTSYNMYWVRQARGQRLEWIGYIDPYNGDTTYNQKFKGRVTITRDMSTSTAYMELSSLRSEDTAVYYCLTTAYAMDYWGQGTLVTVSSASTKGPSVFPLAPCSRSTSESTAALGCLVKDYFPEPVTVSWNSGALTSGVHTFPAVLQSSGLYSLSSVVTVPSSSLGTKTYTCNVDHKPSNTKVDKRVESKYGPPCPPCPAPEFLGGPSVFLFPPKPKDTLMISRTPEVTCVVVDVSQEDPEVQFNWYVDGVEVHNAKTKPREEQFNSTYRVVSVLTVLHQDWLNGKEYKCKVSNKGLPSSIEKTISKAKGQPREPQVCTLPPSQEEMTKNQVSLSCAVKGFYPSDIAVEWESNGQPENNYKTTPPVLDSDGSFFLVSRLTVDKSRWQEGNVFSCSVMHEALHNHYTQKSLSLSLGK
light 2: DIQLTQSPSFLSASVGDRVTITCSASSTVNYMHWYQQKPGKAPKLLIYSTSNLASGVPSRFSGSGSGTEFTLTISSLQPEDFATYYCHQWSSYPYTFGQGTKLEIKRTVAAPSVFIFPPSDEQLKSGTASVVCLLNNFYPREAKVQWKVDNALQSGNSQESVTEQDSKDSTYSLSSTLTLSKADYEKHKVYACEVTHQGLSSPVTKSFNRGEC
notes: also called E17-Design_2-QQQQ (IgG4); E17-IgG4; copies: 1 + 1 + 1 + 1
- EC50 of T-cell directed killing of malignant B cells (PI-positive Raji cells) [3]: 0.057 nM
- EC50 of T-cell engaged malignant B cell killing [3]: 0.0177 nM

- EC50 [5]: 3.17 nM
B2: W3248-U6T5.G25-1.uIgG4.SP, bispecific anti-PD-1 x CTLA-4 (bispecific antibody)
heavy: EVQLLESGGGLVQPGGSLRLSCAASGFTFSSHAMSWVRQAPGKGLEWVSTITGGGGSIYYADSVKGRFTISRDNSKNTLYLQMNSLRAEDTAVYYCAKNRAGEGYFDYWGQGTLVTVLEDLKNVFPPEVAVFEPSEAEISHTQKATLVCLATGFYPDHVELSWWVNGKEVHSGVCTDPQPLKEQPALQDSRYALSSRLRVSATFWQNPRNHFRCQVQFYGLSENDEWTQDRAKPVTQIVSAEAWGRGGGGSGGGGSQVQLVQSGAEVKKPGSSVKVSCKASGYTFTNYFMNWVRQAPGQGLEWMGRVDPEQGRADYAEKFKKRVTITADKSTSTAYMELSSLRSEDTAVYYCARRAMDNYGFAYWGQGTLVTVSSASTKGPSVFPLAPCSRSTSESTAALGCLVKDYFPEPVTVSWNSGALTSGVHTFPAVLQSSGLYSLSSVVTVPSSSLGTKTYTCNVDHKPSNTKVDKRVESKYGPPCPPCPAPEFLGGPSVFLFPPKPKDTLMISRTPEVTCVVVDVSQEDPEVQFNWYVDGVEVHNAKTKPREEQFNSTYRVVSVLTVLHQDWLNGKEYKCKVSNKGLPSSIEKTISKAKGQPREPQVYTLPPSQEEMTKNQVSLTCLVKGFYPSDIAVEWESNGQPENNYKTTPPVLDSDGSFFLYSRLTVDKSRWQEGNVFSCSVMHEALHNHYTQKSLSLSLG
light 1: SYELTQPLSVSVALGQTARITCGGDNIGNKDVHWYQQKPGQAPVLVIYRDSNRPSGIPEGFSGSNSGNTATLTISRAQAGDEADYYCQVWDSIWVFGGGTKLTVLPDIQNPDPAVYQLRDSKSSDKSVCLFTDFDSQTQVSQSKDSDVYITDKCVLDMRSMDFKSNSAVAWSQKSDFACANAFQNSIIPEDTFFPSPESS
light 2: EIVLTQSPDFQSVTPKEKVTITCSANSALSYMYWYQQKPDQSPKLWVHGTSNLASGVPSRFSGSGSGTDFTLTINSLEAEDAATYYCHHWSNTQWTFGGGTKVEIKRTVAAPSVFIFPPSDEQLKSGTASVVCLLNNFYPREAKVQWKVDNALQSGNSQESVTEQDSKDSTYSLSSTLTLSKADYEKHKVYACEVTHQGLSSPVTKSFNRGEC
notes: IgG4 (S228P); also called WBP3248-U6T5.G25-1-uIgG4.SP; U6T5.G25.IgG4
